According to publication PMC9731866, “Structures of a constitutively active mutant of human IDH3 reveal new insights into the mechanisms of allosteric activation and the catalytic reaction” (The Journal of Biological Chemistry, 2022):

What was measured:
[1] = molecular target: αMβαMγ heterotetramer of HsIDH3 (α-Q139A in both heterodimers) (human) (UniProt P50213); assay: SEC-MALS; low concentration (1 mg/ml); Superdex 200 10/300 GL, 24 °C, 10 mM Hepes pH 7.4, 200 mM NaCl, 5 mM β-ME; N counts the units (heterodimers or heterotetramers) in the oligomer
[2] = molecular target: αMβαMγ heterotetramer of HsIDH3 (α-Q139A in both heterodimers) (human) (UniProt P50213); assay: SEC-MALS; high concentration (10 mg/ml); Superdex 200 10/300 GL, 24 °C, 10 mM Hepes pH 7.4, 200 mM NaCl, 5 mM β-ME; N counts the units (heterodimers or heterotetramers) in the oligomer
[3] = molecular target: αMβ heterodimer of HsIDH3 (α-Q139A with β) (human) (UniProt P50213); assay: SEC-MALS; low concentration (1 mg/ml); Superdex 200 10/300 GL, 24 °C, 10 mM Hepes pH 7.4, 200 mM NaCl, 5 mM β-ME; N counts the units (heterodimers or heterotetramers) in the oligomer
[4] = molecular target: αMβ heterodimer of HsIDH3 (α-Q139A with β) (human) (UniProt P50213); assay: SEC-MALS; high concentration (10 mg/ml); Superdex 200 10/300 GL, 24 °C, 10 mM Hepes pH 7.4, 200 mM NaCl, 5 mM β-ME; N counts the units (heterodimers or heterotetramers) in the oligomer

stoichiometry N [1]	stoichiometry N [2]	stoichiometry N [3]	stoichiometry N [4]	Substance
2	2	–	–	αMβαMγ heterotetramer of HsIDH3 (α-Q139A in both heterodimers) (from UniProt P50213 28-366; O43837 35-360; P51553 40-393) (complex)
–	–	2	2	αMβ heterodimer of HsIDH3 (α-Q139A with β) (from UniProt P50213 28-366; O43837 35-360) (complex)
